The text below walks through data of article PMC12856669 (2026).

Substitutions are numbered along the chain they refer to.

Experiment [1] deals with NpF2164g6 (1038–1206), holo-protein, not biotinylated.
Experiment [2] has as its target T1, NpF2164g6 (1038–1206), holo-protein, not biotinylated (phycocyanobilin (PCB) chromophore bound).
T1 chain: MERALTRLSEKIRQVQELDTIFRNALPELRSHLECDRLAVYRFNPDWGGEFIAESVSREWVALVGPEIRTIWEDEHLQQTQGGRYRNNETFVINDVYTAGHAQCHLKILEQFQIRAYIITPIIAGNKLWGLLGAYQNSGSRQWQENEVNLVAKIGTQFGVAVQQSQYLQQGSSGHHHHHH
In words: dark state (Pr), thermal reversion.

The target in experiment [3] is T1, NpF2164g6 (1038–1206), holo-protein, …. Description: Pr-state (dark), from thermal reversion rate.
Experiment [4] concerns the target Biotinylated NpF2164g6 (1038–1206), Avi-tagged holo-protein. Description: ELISA; purified biotinylated NpF2164g6 immobilised, purified FLAG-tagged binders, dark-adapted (Pr state).
The target is the same in experiment [5]. Description: ELISA; purified biotinylated NpF2164g6 immobilised, purified FLAG-tagged binders, red-light conditions (Pg state).
The target in experiment [6] is NpF2164g6 (1038–1206), holo-protein, not biotinylated. In words: other fluorescence titration; Pr (dark) state fluorescence of NpF2164g6 against binder concentration, 1:1 binding model, gives Kd,D; 25 °C, PBS pH 7.2.
For experiment [7] the target is unchanged. In words: thermal reversion kinetics (UV-vis); observed thermal reversion rate of NpF2164g6 against binder concentration, gives Kd,L of the light (Pg) state; 25 °C, PBS pH 7.2.
Experiment [8] addresses T2, NpF2164g6 (1052–1206), N-terminal truncation (phycocyanobilin (PCB) chromophore linked to Cys90 (construct numbering); 15N label for NMR).
T2 chain: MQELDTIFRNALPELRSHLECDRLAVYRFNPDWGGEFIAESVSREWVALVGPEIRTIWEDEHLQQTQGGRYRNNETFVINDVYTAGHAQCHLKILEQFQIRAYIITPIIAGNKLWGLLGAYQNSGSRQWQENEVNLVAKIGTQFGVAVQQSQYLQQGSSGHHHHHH
Description: dark state (Pr), thermal reversion.

Experiment [9] has as its target T2, NpF2164g6 (1052–1206), N-terminal …. In words: light state (Pg), thermal reversion.

Chain of Biotinylated NpF2164g6 (1038–1206), Avi-tagged holo-protein (main, as listed by the source): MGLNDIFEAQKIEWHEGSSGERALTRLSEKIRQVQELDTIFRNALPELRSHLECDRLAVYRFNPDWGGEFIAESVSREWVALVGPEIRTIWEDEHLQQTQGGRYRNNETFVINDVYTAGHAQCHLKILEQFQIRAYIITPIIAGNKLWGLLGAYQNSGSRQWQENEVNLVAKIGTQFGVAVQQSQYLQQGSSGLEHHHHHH

B1: BNp-Red-1.2 (designed binder)
chain: MKLATIDQWLLKNAKEDAIAELKKAGITADAYFNWINNAWDVDYVNYRKNKILKAHAGSSGLEHHHHHH
B1: the SEAP reporter activity in stably transfected CHO-K1 cells (NpF2164g6-FUS-VP16-NLS and E-BNp-Red-1.2-NLS), dark against 660 nm illumination for 24 h, bulk cell culture in experiment [1] was found to be 24 fold. The molecule further showed an SEAP reporter activity in stably transfected CHO-K1 cells (NpF2164g6-FUS-VP16-NLS and E-BNp-Red-1.2-NLS), dark against 660 nm illumination for 24 h, individual clones in experiment [1] greater than 30 fold. The Kd in [2] was 3.7 µM; in experiment [3] it was 3.7 µM; in experiment [4], 0.6 µM; in experiment [5], greater than 100 µM; in [6] it was 3 µM; in [7], greater than 30 µM.

B2: BNp-Red-1.0 (binder of NpF2164g6-Red state) (designed binder)
chain: B1 chain with A29S, W35L, N38D, W40F
With B2, the Kd in [8] is 7 µM; in [2], 7.9 µM; in experiment [9], greater than 180 µM; in experiment [3], 7.9 µM; in experiment [6], 7 µM; in experiment [7], greater than 200 µM.
